Results published in patent US20240327884A1, “ATP-PRT VARIANT WITH REDUCED FEEDBACK INHIBITION BY HISTIDINE, AND HISTIDINE-PRODUCING STRAIN EXPRESSING SAME” (priority 2020, published 2024).

Biological target: T1, ATP phosphoribosyltransferase (Escherichia coli, UniProt P60757, E271K/H232T/R250H/S288P/T252L)
T1 construct: made in house; supernatant of sonicated cells
Format: biochemical, E. coli
Settings: comparison of hisG_WT, hisG_SDM4, hisG_SDM7
Experimental: Each strain was cultured under conditions of 30° C. and 180 rpm. When the OD600 reached 0.6, ATP-PRT expression was induced with 1 mM IPTG (final concentration) and additional culture was performed for about 4 hours. The cells obtained after culturing were sonicated and centrifuged. The obtained supernatants were used for evaluation of ATP phosphoribosyltransferase activity. […] The protein in each supernatant was quantified to match the concentration, and the enzyme activity was measured after mixing the reactants according to the reaction composition shown in Table 8 below.
The activity was measured at 30° C. at a UV wavelength of 290 nm at 2 minute intervals for 30 minutes.

B1: hisG_SDM7: ATP-PRT variant containing H232T, R250H, T252L, E271K and S288P mutations (protein)
chain: MTDNTRLRIAMQKSGRLSDDSRELLARCGIKINLHTQRLIAMAENMPIDILRVRDDDIPGLVMDGVVDLGIIGENVLEEELLNRRAQGEDPRYFTLRRLDFGGCRLSLATPVDEAWDGPLSLNGKRIATSYPHLLKRYLDQKGISFKSCLLNGSVEVAPRAGLADAICDLVSTGATLEANGLREVEVIYRSKACLIQRDGEMEESKQQLIDKLLTRIQGVIQARESKYIMMTAPTERLDEVIALLPGAEHPLILPLAGDQQRVAMHMVSSKTLFWETMEKLKALGASPILVLPIEKMME
modifications: hisG_SDM7
notes: ATP-PRT variant containing H232T, R250H, T252L, E271K and S288P mutations
With B1 the “Resistance to activity inhibition by histidine” value was “best resistance”.
